Experimental data published in paper PMC5836831, “Candidate SNP markers of reproductive potential are predicted by a significant change in the affinity of TATA-binding protein for human gene promoters”.

B1: TPI1 promoter ODN, ancestral (rs1800202 t) (dsDNA)
DNA 1: CTCTATATAAGTGGG
DNA 2: CCCACTTATATAGAG
B2: TPI1 promoter ODN, minor (rs1800202 g) (dsDNA)
DNA 1: CTCTATAGAAGTGGG
DNA 2: CCCACTTCTATAGAG

Assays:
[1] = target: T1, TATA-binding protein (TBP) (human, UniProt P20226 1-339); assay: EMSA; conditions: EMSA: 20 mM HEPES-KOH pH 7.6, 5 mM MgCl2, 70 mM KCl, 1 mM EDTA, 100 ug/ml BSA, 0.01% NP-40, 5% glycerol, 25 C, 0.3 nM TBP titrated with ODN; stopped-flow: …
T1 sequence (P20226 whole entry): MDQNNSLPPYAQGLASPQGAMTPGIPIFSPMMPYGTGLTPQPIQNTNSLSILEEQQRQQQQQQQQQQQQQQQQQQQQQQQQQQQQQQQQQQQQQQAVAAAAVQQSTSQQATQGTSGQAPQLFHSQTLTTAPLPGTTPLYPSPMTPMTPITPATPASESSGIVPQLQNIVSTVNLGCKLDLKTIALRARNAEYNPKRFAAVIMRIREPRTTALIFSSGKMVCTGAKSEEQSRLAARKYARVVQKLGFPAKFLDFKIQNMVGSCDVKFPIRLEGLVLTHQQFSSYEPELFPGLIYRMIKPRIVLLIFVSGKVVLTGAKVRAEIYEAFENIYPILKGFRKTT

[2] = target: T1, TATA-binding protein (TBP); assay: stopped-flow fluorescence (FRET); EMSA: 20 mM HEPES-KOH pH 7.6, 5 mM MgCl2, 70 mM KCl, 1 mM EDTA, 100 ug/ml BSA, 0.01% NP-40, 5% glycerol, 25 C, 0.3 nM TBP titrated with ODN; stopped-flow: 0.1 uM ODN, 0.1-1.0 uM TBP, buffer not stated; conditions: protein: recombinant; label: 5'-TAMRA and 5'-FAM; blunt

| Molecule | Kd [1] [nM] | Kd [2] [nM] |
| --- | --- | --- |
| HBB promoter ODN, ancestral (rs33981098 a) | 44 |  |
| HBB promoter ODN, minor (rs33981098) | 90 |  |
| B1 |  | 1 |
| B2 |  | 6 |
